The values below come from patent US20120316324A1 (UCB, published 2012).

Experiment [1] concerns the target T1, hIL13 (human, UniProt P35225 35-146, limits assumed).
T1 construct: also called human IL-13
As to the kind of experiment: SPR Biacore 3000, construct captured, 20 nM hIL13 injected.

The target of experiment [2] is T1, hIL13. As to the kind of experiment: SPR (Biacore 3000), construct captured by anti human CH1 antibody on CM5 chip, hIL13 as analyte (single concentration 20 nM).
For experiment [3], the target named is T2, human serum albumin (human, UniProt P02768 25-609).
T2 construct: also called HSA; HumanSA
As to the kind of experiment: SPR (Biacore 3000), construct captured by anti human CH1 antibody on CM5 chip, HSA as analyte.

B1: 645Fv-652Fab (L-3xG4S, H-3xG4S) (bispecific antibody, V domains shown)
VH: EVQLLESGGGLVQPGGSLRLSCAVSGIDLSNYAINWVRQAPGKGLEWIGIIWASGTTFYATWAKGRFTISRDSTTVYLQMNSLRAEDTAVYYCARTVPGYSTAPYFDLWGQGTLVTVSS
VL: DIVMTQSPSSVSASVGDRVTITCQSSPSVWSNFLSWYQQKPGKAPKLLIYEASKLTSGVPSRFKGSGSGTDFTLTISSLQPEDFATYYCGGGYSSISDTTFGGGTKVEIK
In turn, B1 gave a Kd in experiment [1] of about 0.1 nM. For the same molecule, in experiment [2], the dissociation constant (Kd) amounted to 0.126 nM, the koff came to 0.000177 s⁻¹ and the kon stood at 1.4e+06 M⁻¹ s⁻¹. For the same molecule, in experiment [3], the affinity, expressed as Kd, was 1.22 nM; the koff was found to be 0.000311 s⁻¹; the association rate constant (kon) is 255000 M⁻¹ s⁻¹.
